Changes are numbered by the printed parent chain.

Series [1] deals with T1, GST-ZBTB4 zinc fingers (Homo sapiens, UniProt Q9P1Z0 268-460).
T1 sequence: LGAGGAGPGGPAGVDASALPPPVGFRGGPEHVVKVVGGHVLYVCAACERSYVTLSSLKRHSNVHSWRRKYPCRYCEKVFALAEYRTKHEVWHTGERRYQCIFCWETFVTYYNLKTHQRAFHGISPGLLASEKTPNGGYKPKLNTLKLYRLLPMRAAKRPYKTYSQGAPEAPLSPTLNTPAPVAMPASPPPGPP
The experiment in a line: EMSA.

In series [2] the target is T1, GST-ZBTB4 zinc fingers. The experiment in a line: competition.
A further series concerns the target T2, GST-ZBTB4 E350A (Homo sapiens, UniProt Q9P1Z0 268-460, E350A).
T2 sequence: T1 sequence with E83A
The experiment in a line: EMSA.

The target in the next series is T3, GST-ZBTB38 zinc fingers (Homo sapiens, UniProt Q8NAP3 418-612).
T3 sequence: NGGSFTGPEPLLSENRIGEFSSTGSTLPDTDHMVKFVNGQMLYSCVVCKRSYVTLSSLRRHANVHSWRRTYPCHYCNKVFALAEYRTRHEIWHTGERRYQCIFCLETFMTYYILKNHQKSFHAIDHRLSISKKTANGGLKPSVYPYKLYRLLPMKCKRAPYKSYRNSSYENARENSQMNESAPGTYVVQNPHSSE
The experiment in a line: EMSA.

The next series addresses T4, GST-Kaiso zinc fingers (Homo sapiens, UniProt Q86T24 454-638).
T4 sequence: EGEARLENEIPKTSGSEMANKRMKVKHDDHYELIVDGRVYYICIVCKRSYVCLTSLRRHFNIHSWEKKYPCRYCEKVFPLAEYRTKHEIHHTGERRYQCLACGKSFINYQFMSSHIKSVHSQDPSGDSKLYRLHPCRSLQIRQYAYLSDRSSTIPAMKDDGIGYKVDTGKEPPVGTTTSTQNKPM
The experiment in a line: EMSA.

Series [3] deals with T1, GST-ZBTB4 zinc fingers. Description: competition. This is another data set of the same source.
For the next series, the target named is T5, GST-Kaiso E535A (Homo sapiens, UniProt Q86T24 454-638, E535A).
T5 sequence: T4 sequence with E82A
Description: EMSA. (Mobility shift assays separate free from complexed probe on a gel.)

Another series has as its target T6, GST-ZBTB4 L348A (Homo sapiens, UniProt Q9P1Z0 268-460, L348A).
T6 sequence: T1 sequence with L81A
The experiment in a line: EMSA.

The next series deals with T7, GST-ZBTB4 Y351A (Homo sapiens, UniProt Q9P1Z0 268-460, Y351A).
T7 sequence: T1 sequence with Y84A
The experiment in a line: EMSA.

In a further series the target is T8, GST-ZBTB4 K354A (Homo sapiens, UniProt Q9P1Z0 268-460, K354A).
T8 sequence: T1 sequence with K87A
The experiment in a line: EMSA.

Another series deals with T9, GST-ZBTB4 R326A (Homo sapiens, UniProt Q9P1Z0 268-460, R326A).
T9 sequence: T1 sequence with R59A
The experiment in a line: EMSA.

A further series has as its target T10, GST-ZBTB4 T376A (Homo sapiens, UniProt Q9P1Z0 268-460, T376A).
T10 sequence: T1 sequence with T109A
The experiment in a line: EMSA.

The target of a further series is T11, GST-ZBTB4 S323A (Homo sapiens, UniProt Q9P1Z0 268-460, S323A).
T11 sequence: T1 sequence with S56A
Description: EMSA.

In series [4] the target is T1, GST-ZBTB4 zinc fingers. The experiment in a line: EMSA. The source holds these as a separate data set.

B1: MS20 unmethylated (ACGCTTG) (dsDNA)
DNA 1: AAGGCCAACGCTTGTGGT
DNA 2: ACCACAAGCGTTGGCCTT
As for B1, the binding result with GST-ZBTB4 zinc fingers [1] is on record as “no binding”.

B2: meZ4BS hemimethylated, upper strand (dsDNA)
DNA 1: GTAGAAGTTCCCGCCATCACTATTG
DNA 2: CAATAGTGATGGCGGGAACTTCTAC
modifications: 5mC at strand 1 C12 only
In the case of B2, in the series with GST-ZBTB4 zinc fingers [2], the binding result was “binds”.

B3: MS8 methylated (CCGCTAT) (dsDNA)
DNA 1: ACCCAAACCGCTATCCTT
DNA 2: AAGGATAGCGGTTTGGGT
modifications: 5mC at CpG, both strands (SssI)
As to B3, in the series with GST-ZBTB4 zinc fingers [1], the binding result is “binds”.

B4: TG/GC mismatch (dsDNA)
DNA 1: GTAGAAGTTCCTGCCATCACTATTG
DNA 2: CAATAGTGATGGCGGGAACTTCTAC
B4: the binding result in the series with GST-ZBTB4 E350A was “binds”.

B5: S15 (CCGCCATC) (dsDNA)
DNA 1: ACCCAACCGCCATCTGGGT
DNA 2: ACCCAGATGGCGGTTGGGT
With B5, the binding result was “no binding” in the series with GST-ZBTB38 zinc fingers, “binds” with GST-Kaiso zinc fingers and “binds” with GST-ZBTB4 zinc fingers [1].

B6: meZ4BS (CMGCCAT) (dsDNA)
DNA 1: GTAGAAGTTCCCGCCATCACTATTG
DNA 2: CAATAGTGATGGCGGGAACTTCTAC
modifications: 5mC at strand 1 C12 and strand 2 C13
Turning to B6, the binding result is “binds” with GST-ZBTB4 zinc fingers [3]; “no binding” with GST-Kaiso E535A; “binds” with GST-ZBTB4 L348A; “binds” in the series with GST-ZBTB4 Y351A; “binds” with GST-ZBTB38 zinc fingers; “binds” in the series with GST-ZBTB4 K354A. The binding result with GST-ZBTB4 R326A was “no binding”; with GST-ZBTB4 T376A it was “binds”; with GST-ZBTB4 S323A, “binds”.

B7: MS20 methylated (ACGCTTG) (dsDNA)
DNA 1: AAGGCCAACGCTTGTGGT
DNA 2: ACCACAAGCGTTGGCCTT
modifications: 5mC at CpG, both strands (SssI)
Take B7: in the series with GST-ZBTB4 zinc fingers [1], the binding result is given as “binds”.

B8: Non-selected (dsDNA)
DNA 1: ACCAAGCAACACACCCCGT
DNA 2: ACGGGGTGTGTTGCTTGGT
B8: in the series with GST-ZBTB4 zinc fingers [1], the binding result is “no binding”.

B9: Z4BS (ZBS, CTGCCATC; = TG/AC) (dsDNA)
DNA 1: GTAGAAGTTCCTGCCATCACTATTG
DNA 2: CAATAGTGATGGCAGGAACTTCTAC
On to B9, for which the binding result with GST-Kaiso E535A is “binds”; in the series with GST-ZBTB4 E350A, “binds”; with GST-ZBTB4 K354A it was “binds”; in the series with GST-ZBTB4 R326A, “no binding”; with GST-ZBTB4 T376A, “binds”; with GST-ZBTB4 zinc fingers [4], “binds”.

B10: S2 (CTGCCATC) (dsDNA)
DNA 1: ACCCACCTGCCATCTAGGT
DNA 2: ACCTAGATGGCAGGTGGGT
For the molecule B10, the binding result with GST-ZBTB38 zinc fingers is on record as “no binding”; in the series with GST-Kaiso zinc fingers, “binds”; with GST-ZBTB4 zinc fingers [1], “binds”.

The values above are taken from paper PMC2926618.
